Experimental data from PMC10349104.
Several values for one entry are separate records, joined by “and”; a condition that tells them apart may be missing. Identical values can stand only once.

Assays:
Experiment in all cases: SPR
[1] = target: EVA-A(Y44A) (A. americanum)
[2] = target: EVA-A(21-102) (A. americanum)
[3] = target: EVA-A(1-98) (A. americanum)
[4] = target: EVA-A(L39P) (A. americanum)
[5] = target: EVA-A(C8) (A. americanum)
[6] = target: EVA-A(DC) (Amblyomma americanum)
[7] = target: EVA-A(L39P) (Amblyomma americanum)
[8] = target: EVA-A(Y44A) (Amblyomma americanum)
[9] = target: EVA-A(C8) (Amblyomma americanum)
[10] = target: EVA-A(DN) (Amblyomma americanum)

CCL22, sequence (O00626 25-93): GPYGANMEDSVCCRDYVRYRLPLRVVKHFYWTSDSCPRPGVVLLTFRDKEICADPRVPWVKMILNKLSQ
CCL14, sequence (Q16627 20-93): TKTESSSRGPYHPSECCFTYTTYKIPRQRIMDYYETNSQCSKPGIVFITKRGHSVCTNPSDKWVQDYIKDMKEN
CCL27, sequence (Q9Y4X3 25-112): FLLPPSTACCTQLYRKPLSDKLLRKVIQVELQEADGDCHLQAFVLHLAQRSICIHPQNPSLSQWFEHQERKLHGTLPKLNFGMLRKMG
CCL23, sequence (P55773 22-120): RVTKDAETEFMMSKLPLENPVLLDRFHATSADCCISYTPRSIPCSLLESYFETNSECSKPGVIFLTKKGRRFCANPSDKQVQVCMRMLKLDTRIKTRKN
CCL21, sequence (O00585 24-134): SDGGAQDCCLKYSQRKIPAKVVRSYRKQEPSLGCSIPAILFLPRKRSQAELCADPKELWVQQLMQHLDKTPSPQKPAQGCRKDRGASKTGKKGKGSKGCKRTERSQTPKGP
CCL15, sequence (Q16663 22-113): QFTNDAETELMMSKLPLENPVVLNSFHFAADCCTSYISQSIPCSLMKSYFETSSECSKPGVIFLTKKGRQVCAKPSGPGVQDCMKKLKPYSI
CCL17, sequence (Q92583 24-94): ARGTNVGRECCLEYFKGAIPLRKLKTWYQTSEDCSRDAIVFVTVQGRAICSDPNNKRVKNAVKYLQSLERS

Substance: CCL14 (from UniProt Q16627 20-93) (ligand)
- Kd [1]: 0.11 nM
- koff [1]: 5e-05 s⁻¹
- kon [1]: 481000 M⁻¹ s⁻¹
- Kd [2]: 0.11 nM
- koff [2]: 8e-05 s⁻¹
- kon [2]: 703000 M⁻¹ s⁻¹
- Kd [3]: < 0.1 nM
- koff [3]: < 0.0001 s⁻¹
- kon [3]: 239000 M⁻¹ s⁻¹
- Kd [4]: 0.04 nM
- koff [4]: 0.00013 s⁻¹
- kon [4]: 2.41e+06 M⁻¹ s⁻¹
- Kd [5]: 1.3 nM
- koff [5]: 0.00048 s⁻¹
- kon [5]: 386000 M⁻¹ s⁻¹

Substance: CCL14 (ligand)
- kon [6]: 206000 M⁻¹ s⁻¹ and 297000 M⁻¹ s⁻¹ and 214000 M⁻¹ s⁻¹

Substance: CCL15 (from UniProt Q16663 22-113) (ligand)
- Kd [1]: 161 nM
- koff [1]: 0.0117 s⁻¹
- kon [1]: 79000 M⁻¹ s⁻¹
- Kd [2]: 34 nM
- koff [2]: 0.00214 s⁻¹
- kon [2]: 63000 M⁻¹ s⁻¹
- Kd [3]: 31.7 nM
- koff [3]: 0.00162 s⁻¹
- kon [3]: 53000 M⁻¹ s⁻¹
- Kd [4]: 26.6 nM
- koff [4]: 0.00467 s⁻¹
- kon [4]: 102000 M⁻¹ s⁻¹
- Kd [5]: 577 nM
- koff [5]: 0.0127 s⁻¹
- kon [5]: 22000 M⁻¹ s⁻¹

Substance: CCL15 (ligand)
- Kd [6]: 30.9 nM and 32.9 nM and 31.2 nM
- koff [6]: 0.00162 s⁻¹ and 0.00173 s⁻¹ and 0.00167 s⁻¹
- kon [6]: 52500 M⁻¹ s⁻¹ and 52700 M⁻¹ s⁻¹ and 53700 M⁻¹ s⁻¹

Substance: CCL16(L19A) (from UniProt O15467 24-120) (ligand)
- Kd [1]: 15.9 nM
- koff [1]: 0.00151 s⁻¹
- kon [1]: 107000 M⁻¹ s⁻¹
- Kd [7]: 1.54 nM and 1.52 nM (2×)
- koff [7]: 0.000757 s⁻¹ and 0.000893 s⁻¹ and 0.000913 s⁻¹
- kon [7]: 492000 M⁻¹ s⁻¹ and 588000 M⁻¹ s⁻¹ and 599000 M⁻¹ s⁻¹
- Kd [8]: 25.2 nM and 12.3 nM and 10.2 nM
- koff [8]: 0.00171 s⁻¹ and 0.00134 s⁻¹ and 0.00147 s⁻¹
- kon [8]: 68100 M⁻¹ s⁻¹ and 109000 M⁻¹ s⁻¹ and 144000 M⁻¹ s⁻¹
- Kd [4]: 1.53 nM
- koff [4]: 0.00085 s⁻¹
- kon [4]: 560000 M⁻¹ s⁻¹

Substance: CCL17 (from UniProt Q92583 24-94) (ligand)
- Kd [1]: 61.9 nM
- Kd [2]: 1.04 nM
- Kd [7]: 3.31 nM and 3.25 nM and 15.9 nM
- Kd [9]: 77 nM and 67.5 nM and 147 nM
- Kd [8]: 65.8 nM and 104 nM and 15.8 nM
- Kd [3]: < 0.1 nM
- Kd [4]: 7.49 nM
- Kd [10]: 1.06 nM and 1.05 nM and 1.01 nM
- Kd [5]: 97.1 nM

Substance: CCL21 (from UniProt O00585 24-134) (ligand)
- Kd [1]: 119 nM
- koff [1]: 0.00356 s⁻¹
- kon [1]: 36000 M⁻¹ s⁻¹
- Kd [2]: 47.5 nM
- koff [2]: 0.0106 s⁻¹
- kon [2]: 224000 M⁻¹ s⁻¹
- Kd [7]: 24.3 nM and 19.8 nM and 29.4 nM
- koff [7]: 0.00331 s⁻¹ and 0.00445 s⁻¹ and 0.00676 s⁻¹
- kon [7]: 136000 M⁻¹ s⁻¹ and 225000 M⁻¹ s⁻¹ and 230000 M⁻¹ s⁻¹
- Kd [8]: 135 nM and 40.8 nM and 180 nM
- koff [8]: 0.00431 s⁻¹ and 0.00219 s⁻¹ and 0.00417 s⁻¹
- kon [8]: 32000 M⁻¹ s⁻¹ and 53800 M⁻¹ s⁻¹ and 23100 M⁻¹ s⁻¹
- Kd [6]: 30.1 nM and 12.1 nM and 11.4 nM
- koff [6]: 0.00233 s⁻¹ and 0.00174 s⁻¹ and 0.00177 s⁻¹
- kon [6]: 77500 M⁻¹ s⁻¹ and 144000 M⁻¹ s⁻¹ and 154000 M⁻¹ s⁻¹
- Kd [3]: 17.8 nM
- koff [3]: 0.00233 s⁻¹
- kon [3]: 126000 M⁻¹ s⁻¹
- Kd [4]: 24.5 nM
- koff [4]: 0.00484 s⁻¹
- kon [4]: 197000 M⁻¹ s⁻¹
- Kd [10]: 51.1 nM and 51.4 nM and 40 nM
- koff [10]: 0.0125 s⁻¹ and 0.0092 s⁻¹ and 0.00995 s⁻¹
- kon [10]: 245000 M⁻¹ s⁻¹ and 179000 M⁻¹ s⁻¹ and 248000 M⁻¹ s⁻¹

Substance: CCL22 (from UniProt O00626 25-93) (ligand)
- Kd [1]: 11.2 nM
- koff [1]: 0.00818 s⁻¹
- kon [1]: 766000 M⁻¹ s⁻¹
- Kd [2]: 61.6 nM
- koff [2]: 0.00161 s⁻¹
- kon [2]: 26000 M⁻¹ s⁻¹
- Kd [7]: 1.64 nM and 1.17 nM and 1.57 nM
- koff [7]: 0.00125 s⁻¹ and 0.00151 s⁻¹ and 0.00165 s⁻¹
- kon [7]: 763000 M⁻¹ s⁻¹ and 1.28e+06 M⁻¹ s⁻¹ and 1.05e+06 M⁻¹ s⁻¹
- Kd [8]: 6.2 nM and 14.4 nM and 13.1 nM
- koff [8]: 0.0056 s⁻¹ and 0.00713 s⁻¹ and 0.0118 s⁻¹
- kon [8]: 903000 M⁻¹ s⁻¹ and 496000 M⁻¹ s⁻¹ and 899000 M⁻¹ s⁻¹
- Kd [6]: 125 nM
- kon [6]: 37600 M⁻¹ s⁻¹ and 12800 M⁻¹ s⁻¹
- Kd [3]: 125 nM
- koff [3]: 0.00084 s⁻¹
- kon [3]: 29000 M⁻¹ s⁻¹
- Kd [4]: 1.46 nM
- koff [4]: 0.00292 s⁻¹
- kon [4]: 1.03e+06 M⁻¹ s⁻¹
- Kd [10]: 64.9 nM and 73.9 nM and 46 nM
- koff [10]: 0.00186 s⁻¹ and 0.00173 s⁻¹ and 0.00125 s⁻¹
- kon [10]: 28700 M⁻¹ s⁻¹ and 23400 M⁻¹ s⁻¹ and 27200 M⁻¹ s⁻¹

Substance: CCL23 (from UniProt P55773 22-120) (ligand)
- Kd [1]: 18.8 nM
- koff [1]: 0.00176 s⁻¹
- kon [1]: 100000 M⁻¹ s⁻¹
- Kd [2]: 0.51 nM
- koff [2]: 4e-05 s⁻¹
- kon [2]: 87000 M⁻¹ s⁻¹
- Kd [3]: 0.45 nM
- koff [3]: 2e-05 s⁻¹
- kon [3]: 144000 M⁻¹ s⁻¹
- Kd [4]: 1.14 nM
- koff [4]: 0.00067 s⁻¹
- kon [4]: 140000 M⁻¹ s⁻¹
- Kd [5]: 20.3 nM
- koff [5]: 0.00131 s⁻¹
- kon [5]: 74000 M⁻¹ s⁻¹

Substance: CCL27 (from UniProt Q9Y4X3 25-112) (ligand)
- Kd [1]: 110 nM
- koff [1]: 0.00639 s⁻¹
- kon [1]: 52000 M⁻¹ s⁻¹
- Kd [7]: 48.2 nM and 78.8 nM and 64.7 nM
- koff [7]: 0.00218 s⁻¹ and 0.00268 s⁻¹ and 0.00356 s⁻¹
- kon [7]: 45300 M⁻¹ s⁻¹ and 34000 M⁻¹ s⁻¹ and 55000 M⁻¹ s⁻¹
- Kd [8]: 59.4 nM and 191 nM and 78.8 nM
- kon [8]: 51200 M⁻¹ s⁻¹ and 70200 M⁻¹ s⁻¹ and 34000 M⁻¹ s⁻¹
- Kd [6]: 36.9 nM and 53 nM and 35.3 nM
- koff [6]: 0.00409 s⁻¹ and 0.00367 s⁻¹ and 0.0037 s⁻¹
- kon [6]: 111000 M⁻¹ s⁻¹ and 69300 M⁻¹ s⁻¹ and 105000 M⁻¹ s⁻¹
- Kd [3]: 41.7 nM
- koff [3]: 0.00409 s⁻¹
- kon [3]: 95000 M⁻¹ s⁻¹
- Kd [4]: 63.9 nM
- koff [4]: 0.00309 s⁻¹
- kon [4]: 45000 M⁻¹ s⁻¹
